Measured values: PMC9352680, “A comprehensive thermodynamic model for RNA binding by the Saccharomyces cerevisiae Pumilio protein PUF4”
Residue numbers refer to the chain shown, from its start. Names and notes keep the numbering of the source.

T1: PUF4 RNA-binding domain (Saccharomyces cerevisiae, UniProt P25339 537-888)
T1 sequence: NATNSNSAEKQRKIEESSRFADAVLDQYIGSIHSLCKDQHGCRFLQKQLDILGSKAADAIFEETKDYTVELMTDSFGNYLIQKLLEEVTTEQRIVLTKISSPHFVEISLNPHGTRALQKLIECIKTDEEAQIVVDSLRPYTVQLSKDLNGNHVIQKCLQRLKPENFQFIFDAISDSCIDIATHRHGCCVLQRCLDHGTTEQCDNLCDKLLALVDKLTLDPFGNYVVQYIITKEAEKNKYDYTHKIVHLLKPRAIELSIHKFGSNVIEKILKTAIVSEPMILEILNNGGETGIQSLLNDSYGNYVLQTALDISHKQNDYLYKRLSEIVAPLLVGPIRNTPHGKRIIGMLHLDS

B1: Id_ii_S4_P4E.2_K4.1_C4.2_[C-2G]_[T-1C]_H4.1_A4.1_F4.1_T4.2_[G10C]_[T11C] (ssRNA)
RNA: UUUGACAACUGAUCGUUCUUUCUGCUGUAUAUUACCUUCUUUCUCGAUCAGUUGUCUUU
B2: Id_ii_S4_P4E.2_K4.1_C4.2_[C-2T]_H4.1_A4.1_F4.1_T4.2_[G10A]_[T11G] (ssRNA)
RNA: B1 RNA with G24U, C25U, C35A, C36G
B3: Id_ii_S4_P4E.2_K4.1_C4.2_[C-2T]_[T-1A]_H4.1_A4.1_F4.1_T4.2_[G10T]_[T11C] (ssRNA)
RNA: B1 RNA with G24U, C25A, C35U
B4: Id_ii_S4_P4E.2_K4.1_C4.2_[C-2G]_H4.1_A4.1_F4.1_T4.2_[G10T]_[T11A] (ssRNA)
RNA: B1 RNA with C25U, C35U, C36A
B5: Id_ii_S4_P4E.2_K4.1_C4.2_[C-2A]_[T-1C]_H4.1_A4.1_F4.1_T4.2_[G10T]_[T11A] (ssRNA)
RNA: B1 RNA with G24A, C35U, C36A
B6: Id_ii_S4_P4E.2_K4.1_C4.2_[C-2G]_[T-1C]_H4.1_A4.1_F4.1_T4.2_[G10T] (ssRNA)
RNA: B1 RNA with C35U, C36U
B7: Id_ii_S4_P4E.2_K4.1_C4.2_[C-2A]_[T-1G]_H4.1_A4.1_F4.1_T4.2_[G10T]_[T11C] (ssRNA)
RNA: B1 RNA with G24A, C25G, C35U
B8: Id_ii_S4_P4E.2_K4.1_C4.2_[C-2A]_[T-1G]_H4.1_A4.1_F4.1_T4.2_[G10A]_[T11A] (ssRNA)
RNA: B1 RNA with G24A, C25G, C35A, C36A
B9: Id_ii_S4_P4E.2_K4.1_C4.2_[C-2A]_H4.1_A4.1_F4.1_T4.2_[G10A]_[T11A] (ssRNA)
RNA: B1 RNA with G24A, C25U, C35A, C36A
B10: Id_ii_S4_P4E.2_K4.1_C4.2_[C-2A]_H4.1_A4.1_F4.1_T4.2_[G10T] (ssRNA)
RNA: B1 RNA with G24A, C25U, C35U, C36U
B11: Id_ii_S4_P4E.2_K4.1_C4.2_[C-2T]_H4.1_A4.1_F4.1_T4.2_[G10T]_[T11G] (ssRNA)
RNA: B1 RNA with G24U, C25U, C35U, C36G
B12: Id_ii_S4_P4E.2_K4.1_C4.2_[T-1G]_H4.1_A4.1_F4.1_T4.2_[G10T] (ssRNA)
RNA: B1 RNA with G24C, C25G, C35U, C36U
B13: Id_ii_S4_P4E.2_K4.1_C4.2_[C-2A]_[T-1C]_H4.1_A4.1_F4.1_T4.2_[G10C] (ssRNA)
RNA: B1 RNA with G24A, C36U
B14: Id_ii_S4_P4E.2_K4.1_C4.2_[C-2A]_[T-1C]_H4.1_A4.1_F4.1_T4.2_[G10T]_[T11C] (ssRNA)
RNA: B1 RNA with G24A, C35U
B15: Id_ii_S4_P4E.2_K4.1_C4.2_[C-2T]_[T-1A]_H4.1_A4.1_F4.1_T4.2 (ssRNA)
RNA: B1 RNA with G24U, C25A, C35G, C36U
B16: Id_ii_S4_P4E.2_K4.1_C4.2_[C-2T]_H4.1_A4.1_F4.1_T4.2 (ssRNA)
RNA: B1 RNA with G24U, C25U, C35G, C36U
B17: Id_ii_S4_P4E.2_K4.1_C4.2_[C-2A]_[T-1A]_H4.1_A4.1_F4.1_T4.2_[G10T] (ssRNA)
RNA: B1 RNA with G24A, C25A, C35U, C36U
B18: Id_ii_S4_P4E.2_K4.1_C4.2_[C-2T]_[T-1C]_H4.1_A4.1_F4.1_T4.2_[G10T]_[T11C] (ssRNA)
RNA: B1 RNA with G24U, C35U
B19: Id_ii_S4_P4E.2_K4.1_C4.2_[C-2T]_H4.1_A4.1_F4.1_T4.2_[T11C] (ssRNA)
RNA: B1 RNA with G24U, C25U, C35G
B20: Id_ii_S4_P4E.2_K4.1_C4.2_[C-2G]_H4.1_A4.1_F4.1_T4.2_[G10C]_[T11C] (ssRNA)
RNA: B1 RNA with C25U
B21: Id_ii_S4_P4E.2_K4.1_C4.2_[C-2T]_[T-1A]_H4.1_A4.1_F4.1_T4.2_[T11C] (ssRNA)
RNA: B1 RNA with G24U, C25A, C35G
B22: Id_ii_S4_P4E.2_K4.1_C4.2_[C-2T]_H4.1_A4.1_F4.1_T4.2_[G10A]_[T11C] (ssRNA)
RNA: B1 RNA with G24U, C25U, C35A
B23: Id_ii_S4_P4E.2_K4.1_C4.2_[C-2T]_[T-1A]_H4.1_A4.1_F4.1_T4.2_[G10A]_[T11C] (ssRNA)
RNA: B1 RNA with G24U, C25A, C35A
B24: Id_ii_S4_P4E.2_K4.1_C4.2_[C-2A]_[T-1A]_H4.1_A4.1_F4.1_T4.2_[G10A] (ssRNA)
RNA: B1 RNA with G24A, C25A, C35A, C36U

Biological target: T1, PUF4 RNA-binding domain
Experiment: Mg; RNA-MaP; 20 mM Na-HEPES pH 7.4, 30 mM KOAc, 0.75 mM MgCl2, 0.1% Tween-20, 5% glycerol, 0.1 mg/mL BSA, 2 mM DTT; 25 C; 0.0125-409.6 nM protein
Settings: tags: N-His6-TEV cleaved; C-SNAP kept, Cy3B-labelled; label: tethered on chip by stalled RNA polymerase

| Binder | Kd |
| --- | --- |
| UCUCUUUAUAGUAUUAUCUCUU (ssRNA) [Ib_S1_P5E.1_K5.1_C5.1_H5.1_[G2A]_A5.1_[T5G]_F5.1_T5.1] | 1360 nM |
| B1 | 1.35 nM |
| B2 | 3.49 nM |
| B3 | 0.343 nM |
| B4 | 0.515 nM |
| B5 | 0.625 nM |
| B6 | 0.295 nM |
| B7 | 2.16 nM |
| B8 | 1.62 nM |
| B9 | 1.35 nM |
| B10 | 0.312 nM |
| B11 | 0.308 nM |
| B12 | 0.196 nM |
| B13 | 1.24 nM |
| B14 | 0.306 nM |
| B15 | 0.659 nM |
| B16 | 0.37 nM |
| B17 | 1.56 nM |
| B18 | 0.319 nM |
| B19 | 0.339 nM |
| B20 | 1.76 nM |
| B21 | 0.368 nM |
| B22 | 0.493 nM |
| B23 | 1.15 nM |
| B24 | 1.37 nM |
| UCUCUUUUUAGUAUUAUCUCUU (ssRNA) [Ib_S1_P5E.1_K5.1_C5.1_H5.1_[G2T]_A5.1_[T5G]_F5.1_T5.1] | > 2300 nM |
| UCUCUUUCUAUCAUUAUCUCUU (ssRNA) [Ib_S1_P5E.1_K5.1_C5.1_H5.1_[G2C]_A5.1_[T6C]_F5.1_T5.1] | > 2300 nM |
| UCUCUUUUUAUAAUUAUCUCUU (ssRNA) [Ib_S1_P5E.1_K5.1_C5.1_H5.1_[G2T]_A5.1_[T6A]_F5.1_T5.1] | > 2300 nM |
| UCUCUUUAUACUAUUAUCUCUU (ssRNA) [Ib_S1_P5E.1_K5.1_C5.1_H5.1_[G2A]_A5.1_[T5C]_F5.1_T5.1] | 330 nM |
